Test results as given in US20240376198A1 (INHIBRX, published 2024).
Positions count from the first letter of the chain named. Numbers in names are those of the source.

T1: mouse NKp46 (mouse, UniProt Q8C567 17-325)
T1 construct: whole, on cells
T1 sequence (looked up): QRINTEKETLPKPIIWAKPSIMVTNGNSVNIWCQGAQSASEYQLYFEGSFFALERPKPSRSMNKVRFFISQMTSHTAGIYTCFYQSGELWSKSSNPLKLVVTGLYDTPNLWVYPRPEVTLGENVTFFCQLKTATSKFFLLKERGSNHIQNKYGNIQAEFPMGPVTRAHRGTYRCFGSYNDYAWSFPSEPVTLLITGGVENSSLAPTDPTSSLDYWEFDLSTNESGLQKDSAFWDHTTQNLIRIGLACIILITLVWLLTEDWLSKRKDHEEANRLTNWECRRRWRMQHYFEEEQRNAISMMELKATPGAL

B1: hz5D7v12-Fc xELL-Hole; and hz5D7v12-Fc xELL-Knob-IL2-T3A-H16A-E61R-P65R-D84Y-C125S (cx10454) (Fc fusion)
chain 1: EVQLVESGGGEVQPGGSLRLSCAASGRTFASAAMGWFRQAPGKEREFVAAISRSDDTYYAESVKGRFTISRDNAKNTVYLQMSSLRAEDTAVYYCAAVVPTYGSNIYVHSAAYNYWGQGTLVTVKPGGGGDKTHTCPPCPAPGGPSVFLFPPKPKDTLMISRTPEVTCVVVDVSHEDPEVKFNWYVDGVEVHNAKTKPREEQYNSTYRVVSVLTVLHQDWLNGKEYKCKVSNKALPAPIEKTISKAKGQPREPQVYTLPPCRDELTKNQVSLWCLVKGFYPSDIAVEWESNGQPENNYKTTPPVLDSDGSFFLYSKLTVDKSRWQQGNVFSCSVMHEALHNHYTQKSLSLSPGGSGGSAPASSSTKKTQLQLEALLLDLQMILNGINNYKNPKLTRMLTFKFYMPKKATELKHLQCLERELKRLEEVLNLAQSKNFHLRPRYLISNINVIVLELKGSETTFMCEYADETATIVEFLNRWITFSQSIISTLT
chain 2: EVQLVESGGGEVQPGGSLRLSCAASGRTFASAAMGWFRQAPGKEREFVAAISRSDDTYYAESVKGRFTISRDNAKNTVYLQMSSLRAEDTAVYYCAAVVPTYGSNIYVHSAAYNYWGQGTLVTVKPGGGGDKTHTCPPCPAPGGPSVFLFPPKPKDTLMISRTPEVTCVVVDVSHEDPEVKFNWYVDGVEVHNAKTKPREEQYNSTYRVVSVLTVLHQDWLNGKEYKCKVSNKALPAPIEKTISKAKGQPREPQVCTLPPSRDELTKNQVSLSCAVKGFYPSDIAVEWESNGQPENNYKTTPPVLDSDGSFFLVSKLTVDKSRWQQGNVFSCSVMHEALHNRYTQKSLSLSPG
B2: hz5D7v17-Fc xELL-Hole; and hz5D7v17-Fc xELL-Knob-IL2-T3A-H16A-E61R-P65R-D84Y-C125S (cx11314) (Fc fusion)
chain 1: B1 chain 1 with K125R
chain 2: EVQLVESGGGEVQPGGSLRLSCAASGRTFASAAMGWFRQAPGKEREFVAAISRSDDTYYAESVKGRFTISRDNAKNTVYLQMSSLRAEDTAVYYCAAVVPTYGSNIYVHSAAYNYWGQGTLVTVRPGGGGDKTHTCPPCPAPGGPSVFLFPPKPKDTLMISRTPEVTCVVVDVSHEDPEVKFNWYVDGVEVHNAKTKPREEQYNSTYRVVSVLTVLHQDWLNGKEYKCKVSNKALPAPIEKTISKAKGQPREPQVCTLPPSRDELTKNQVSLSCAVKGFYPSDIAVEWESNGQPENNYKTTPPVLDSDGSFFLVSKLTVDKSRWQQGNVFSCSVMHEALHNRYTQKSLSLSPGK
B3: NKp46-hz5D7v15-Fc* (Fc fusion)
chain: EVQLVESGGGEVQPGGSLRLSCAASGRTFASAAMGWFRQAPGKEREFVAAISRSDDTYYAESVKGRFTISRDNAKNTVYLQMSSLRAEDTAVYYCAAVVPTYGNAIYVHSAAYNYWGQGTLVTVKPGGGGPSVFLFPPKPKDTLMISRTPEVTCVVVDVSHEDPEVKFNWYVDGVEVHNAKTKPREEQYNSTYRVVSVLTVLHQDWLNGKEYKCKVSNKALPAPIEKTISKAKGQPREPQVYTLPPSRDELTKNQVSLTCLVKGFYPSDIAVEWESNGQPENNYKTTPPVLDSDGSFFLYSKLTVDKSRWQQGNVFSCSVMHEALHNHYTQKSLSLSPG
notes: VHH-Fc fusion with an IgG1 Fc lacking a hinge (Fc*)

How the values were obtained:
IL-2 receptor = IL-2 receptor (human); experiment: cell-based or functional assay
cynomolgus NKp46 = biological target: T2, cynomolgus NKp46 (cynomolgus monkey, UniProt Q95JB9 22-306); experiment: flow cytometry, HEK293F cells transfected with cyno NKp46
T2 construct: also called cyno NKp46; cynomolgus monkey NKp46
Protocol: (§1) Binding of NKp46-binding polypeptides formatted as VHH-Fc fusion proteins was assessed by flow cytometry. An IgG1-Fc lacking a hinge, or a homodimeric Fc (FIG. 1I-1J) was used (the Fc lacking a hinge is annotated as Fc*). HEK293F cells were transiently transfected with a plasmid encoding full-length human NKp46, cynomolgus NKp46, or mouse NKp46, followed by an IRES and GFP. Transfected cells expressing NKp46 and GFP were used to measure binding of the polypeptides. The transfected cells were plated in a 96-well plate at 30,000 cells per well in FACS buffer (PBS, 1% BSA, 0.1% NaN₃, pH 7.4). Untransfected HEK293F cells were used as a NKp46-negative control and plated at 30,000 cells per well in a separate plate. Test polypeptides were then diluted to two times the final concentration of 1000 nM, and a 3-, 4-, or 5-fold, serial dilution was made. A final column was left with only FACS buffer as a secondary-only control. Test article dilutions were added to an equal volume of cells, and assay plates were incubated for 30 minutes at 4° C. After washing twice with 150 μL. of FACS buffer per well, the cells were resuspended in FACS buffer with α-hFc-647 secondary diluted 1:1000-2000. Assay plates were then left to incubate at 4° C. for 20-30 minutes. After one additional wash with 150 μL of FACS buffer, bound antibody was detected by flow cytometry. Flow cytometric detection was performed on an Intellicyt iQue Plus or Accuri iQue. NKp46 transfected cells were gated on as GFP positive, and polypeptide binding was measured as median fluorescence at 647 nm.

mouse NKp46 = biological target: T1, mouse NKp46; experiment: flow cytometry, HEK293F cells transfected with mouse NKp46
Protocol: as §1

human NKp46 = biological target: T3, human NKp46 (human, UniProt O76036 22-304); experiment: flow cytometry, HEK293F cells transfected with human NKp46
T3 construct: also called CD335; NCR1
Protocol: as §1

T3 sequence (O76036 22-304 Q82K): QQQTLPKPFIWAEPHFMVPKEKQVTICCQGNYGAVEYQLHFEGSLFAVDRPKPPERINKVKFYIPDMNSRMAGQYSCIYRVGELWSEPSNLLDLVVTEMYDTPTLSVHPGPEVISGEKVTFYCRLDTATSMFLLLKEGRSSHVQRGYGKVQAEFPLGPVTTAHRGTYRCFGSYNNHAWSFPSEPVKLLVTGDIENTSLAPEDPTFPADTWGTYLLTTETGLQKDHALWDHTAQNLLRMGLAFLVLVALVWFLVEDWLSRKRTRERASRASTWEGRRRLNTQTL
T2 sequence (Q95JB9 22-306 limits assumed): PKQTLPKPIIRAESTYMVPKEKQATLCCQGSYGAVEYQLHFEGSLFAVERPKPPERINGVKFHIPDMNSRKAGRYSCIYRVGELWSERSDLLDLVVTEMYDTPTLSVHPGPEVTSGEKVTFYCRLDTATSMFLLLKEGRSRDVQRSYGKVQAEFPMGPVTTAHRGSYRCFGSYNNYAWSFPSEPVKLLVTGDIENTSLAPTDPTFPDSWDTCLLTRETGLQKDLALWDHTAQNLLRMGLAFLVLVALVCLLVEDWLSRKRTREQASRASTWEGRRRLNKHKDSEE

Binder | pSTAT5 EC50 on CD56brightCD16- NK cells (IL-2 receptor) [nM] | pSTAT5 EC50 on CD56dimCD16+ NK cells and total NK cells (IL-2 receptor) [nM] | Bmax (MFI) (cynomolgus NKp46) | Kd (cynomolgus NKp46) [nM] | Bmax (MFI) (mouse NKp46) | Kd (mouse NKp46) [nM] | Bmax (MFI) (human NKp46) | Kd (human NKp46) [nM]
B1 | < 0.08 | < 0.4 |  |  |  |  |  | 
B2 | < 0.08 | < 0.4 |  |  |  |  |  | 
B3 |  |  | 16400 | 0.428 | 34300 | 0.729 | 143000 | 0.237
